Article PMC5624674, “CbtA toxin of Escherichia coli inhibits cell division and cell elongation via direct and independent interactions with FtsZ and MreB” (PLoS Genetics, 2017)
Substitutions are numbered along the chain they refer to.

T1: λCI-CbtA fusion protein (wild-type CbtA toxin of E. coli) (E. coli, UniProt P64524 1-124)
T1 construct: also called YeeV; source: bacterial two-hybrid fusion, produced in E. coli reporter strain FW102 OL2-62; not shown: λCI, N-terminal, kept
T1 sequence: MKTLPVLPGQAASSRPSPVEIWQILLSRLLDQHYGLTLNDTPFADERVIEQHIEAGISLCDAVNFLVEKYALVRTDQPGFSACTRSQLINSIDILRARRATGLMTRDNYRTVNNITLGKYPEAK

T2: λCI-CbtA-V48E (E. coli, UniProt P64524 1-124, V48E)
T2 construct: source: bacterial two-hybrid fusion, produced in E. coli reporter strain FW102 OL2-62; not shown: λCI, N-terminal, kept
T2 sequence: T1 sequence with V48E

B1: α-MreB-E196G (natural protein, E. coli, UniProt P0A9X4 1-347, looked up)
chain: MLKKFRGMFSNDLSIDLGTANTLIYVKGQGIVLNEPSVVAIRQDRAGSPKSVAAVGHDAKQMLGRTPGNIAAIRPMKDGVIADFFVTEKMLQHFIKQVHSNSFMRPSPRVLVCVPVGATQVERRAIRESAQGAGAREVFLIEEPMAAAIGAGLPVSEATGSMVVDIGGGTTEVAVISLNGVVYSSSVRIGGDRFDGAIINYVRRNYGSLIGEATAERIKHEIGSAYPGDEVREIEVRGRNLAEGVPRGFTLNSNEILEALQEPLTGIVSAVMVALEQCPPELASDISERGMVLTGGGALLRNLDRLLMEETGIPVVVAEDPLTCVARGGGKALEMIDMHGGDLFSEE
notes: not shown: RNA polymerase α subunit N-terminal domain, N-terminal, kept
B2: α-MreB-E262G (natural protein, E. coli, UniProt P0A9X4 1-347, looked up)
chain: B1 chain with G196E, E262G
notes: as for B1
B3: α-MreB-I126V (natural protein, E. coli, UniProt P0A9X4 1-347, looked up)
chain: B1 chain with I126V, G196E
notes: as for B1
B4: α-MreB-V173A (natural protein, E. coli, UniProt P0A9X4 1-347, looked up)
chain: B1 chain with V173A, G196E
notes: as for B1
B5: α-FtsZ fusion protein (wild-type E. coli FtsZ) (natural protein, UniProt P0A9A6 1-383, looked up)
chain: MFEPMELTNDAVIKVIGVGGGGGNAVEHMVRERIEGVEFFAVNTDAQALRKTAVGQTIQIGSGITKGLGAGANPEVGRNAADEDRDALRAALEGADMVFIAAGMGGGTGTGAAPVVAEVAKDLGILTVAVVTKPFNFEGKKRMAFAEQGITELSKHVDSLITIPNDKLLKVLGRGISLLDAFGAANDVLKGAVQGIAELITRPGLMNVDFADVRTVMSEMGYAMMGSGVASGEDRAEEAAEMAISSPLLEDIDLSGARGVLVNITAGFDLRLDEFETVGNTIRAFASDNATVVIGTSLDPDMNDELRVTVVATGIGMDKRPEITLVTNKQVQQPVMDRYQQHGMAPLTQEQKPVAKVVNDNAPQTAKEPDYLDIPAFLRKQAD
notes: also called λCI-FtsZ; Eco FtsZ; not shown: RNA polymerase α subunit N-terminal domain, N-terminal, kept
B6: α-FtsZ-S177P (natural protein, E. coli, UniProt P0A9A6 1-383, looked up)
chain: B5 chain with S177P
notes: as for B1
B7: α-FtsZ-D180K (natural protein, E. coli, UniProt P0A9A6 1-383, looked up)
chain: B5 chain with D180K
notes: as for B1
B8: α-FtsZ-L169P (natural protein, E. coli, UniProt P0A9A6 1-383, looked up)
chain: B5 chain with L169P
notes: as for B1
B9: α-FtsZ-D180N (natural protein, E. coli, UniProt P0A9A6 1-383, looked up)
chain: B5 chain with D180N
notes: as for B1

What was measured:
Assay in all cases: two-hybrid
[1] = target: T3, λCI-RodZNTD (residues 2–84) (E. coli, UniProt P27434 2-84); settings: partners not purified
T3 construct: also called cytoplasmic N-terminal domain of RodZ; not shown: λCI, N-terminal, kept

[2] = target: the molecule itself
[3] = target: T1, λCI-CbtA fusion protein (wild-type CbtA …); settings: partners not purified
[4] = target: T4, λCI-ZipACTD (residues 186–328) (E. coli, UniProt P77173 186-328); settings: partners not purified
T4 construct: also called C-terminal domain of ZipA; not shown: λCI, N-terminal, kept

[5] = target: B5; settings: partners not purified
[6] = target: T2, λCI-CbtA-V48E; settings: partners not purified

T3 sequence (P27434 2-84): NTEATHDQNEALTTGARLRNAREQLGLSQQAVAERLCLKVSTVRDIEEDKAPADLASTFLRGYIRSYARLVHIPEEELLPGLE

Binder	percent reduction of lacZ expression against wild-type α-MreB [1]	percent reduction of lacZ expression against wild-type α-FtsZ [5]	other results
B1	< 30%		
B2	< 30%		
B3	< 30%		
B4	< 30%		
B5			fold increase in lacZ expression [2]: 4 fold; fold increase in lacZ expression [3]: 18 fold; fold increase in lacZ expression [4]: 10 fold
B6		< 25%	
B7			fold increase in lacZ expression [6]: 9 fold
B8		< 25%	
B9		< 25%	
